# From US20250002577A1 (ONCORESPONSE, published 2025)
# Tests used:
# human LILRB1 on cells [1] = biological target: T1, human LILRB1 on cells (human, UniProt Q8NHL6 24-650); test: flow cytometry, AF647-labelled antibody at 10 µg/mL on human PBMC, gate: CD56dim CD16+ NK cells (LILRB1-expressing subset per paragraph 345)
# T1 construct: whole, on cells; also called hLILRB1; LILRB1-expressing 721.221 cells
# Protocol: To further characterize the binding of LILRB2/1 antibodies to LILRB1 expressing immune cell subsets (namely, B, T, and NK cells), binding assays were performed with primary human PBMCs. Single cell suspensions of peripheral blood mononuclear cells (PBMCs) from healthy donors were seeded at 0.5 million per well in 96-well plates (Thermo Fisher, No. 249946). PBMCs were blocked with 0.5 mg/mL of human IgG1 myeloma plasma (Athens Research, No. 16-16-090707-1M) in FACS Buffer (PBS containing 2% FBS, 2 mM EDTA and 0.05% NaN₃) for 45 min to 1 h at 4° C. The immune cell phenotyping antibodies and indicated AlexaFluor647-labeled test antibodies were then added to the cells and incubated for 45 min to 1 h at 4° C.
# Cells were washed 1× with PBS and stained with the Zombie Violet™ fixable viability dye for 15 min at RT for live cell discrimination. Cells were washed 1× with FACS Buffer, fixed, and acquired on a FACS Symphony cytometer (BD Biosciences). Data analysis was performed using the FlowJo software (v10.8.1). […]
# human LILRB1 on cells [2] = biological target: T1, human LILRB1 on cells; test: flow cytometry, HEK293-6E transfectants
# Procedure, shortened: (§1)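 Antibody binding measured by flow cytometry on HEK293-6E cells transiently transfected with individual human LILRB (1–5) or LILRA (1, 2, 4, 5, 6) plasmids. Antibodies tested at 1 μg/mL.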
# human LILRB2 on cells [3] = biological target: T2, human LILRB2 on cells (human, UniProt Q8N423 22-597); test: flow cytometry, HEK293-6E transfectants
# T2 construct: whole, on cells; also called hLILRB2; LILRB2-HEK293T
# T2 sequence (Q8N423 22-597): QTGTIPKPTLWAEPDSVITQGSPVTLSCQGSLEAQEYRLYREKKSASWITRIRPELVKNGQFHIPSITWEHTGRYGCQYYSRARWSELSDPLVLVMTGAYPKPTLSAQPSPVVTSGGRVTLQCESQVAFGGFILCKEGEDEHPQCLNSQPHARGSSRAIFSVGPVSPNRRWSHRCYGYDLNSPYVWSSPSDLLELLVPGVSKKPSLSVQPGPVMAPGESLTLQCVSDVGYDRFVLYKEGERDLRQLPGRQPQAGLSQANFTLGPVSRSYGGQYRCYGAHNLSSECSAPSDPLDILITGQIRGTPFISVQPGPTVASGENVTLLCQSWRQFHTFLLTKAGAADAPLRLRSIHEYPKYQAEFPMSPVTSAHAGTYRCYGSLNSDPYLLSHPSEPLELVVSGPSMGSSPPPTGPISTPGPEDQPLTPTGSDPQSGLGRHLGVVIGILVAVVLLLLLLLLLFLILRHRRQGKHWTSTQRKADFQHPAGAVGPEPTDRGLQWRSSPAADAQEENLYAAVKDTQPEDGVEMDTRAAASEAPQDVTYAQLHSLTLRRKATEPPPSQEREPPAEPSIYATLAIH
# Procedure, shortened: as §1
# [4] = biological target: T3, human LILRB3 on HEK293-6E cells (human, UniProt O75022 24-631); test: flow cytometry, HEK293-6E transfectants
# T3 construct: whole, on cells; also called hLILRB3
# T3 sequence (O75022 24-631): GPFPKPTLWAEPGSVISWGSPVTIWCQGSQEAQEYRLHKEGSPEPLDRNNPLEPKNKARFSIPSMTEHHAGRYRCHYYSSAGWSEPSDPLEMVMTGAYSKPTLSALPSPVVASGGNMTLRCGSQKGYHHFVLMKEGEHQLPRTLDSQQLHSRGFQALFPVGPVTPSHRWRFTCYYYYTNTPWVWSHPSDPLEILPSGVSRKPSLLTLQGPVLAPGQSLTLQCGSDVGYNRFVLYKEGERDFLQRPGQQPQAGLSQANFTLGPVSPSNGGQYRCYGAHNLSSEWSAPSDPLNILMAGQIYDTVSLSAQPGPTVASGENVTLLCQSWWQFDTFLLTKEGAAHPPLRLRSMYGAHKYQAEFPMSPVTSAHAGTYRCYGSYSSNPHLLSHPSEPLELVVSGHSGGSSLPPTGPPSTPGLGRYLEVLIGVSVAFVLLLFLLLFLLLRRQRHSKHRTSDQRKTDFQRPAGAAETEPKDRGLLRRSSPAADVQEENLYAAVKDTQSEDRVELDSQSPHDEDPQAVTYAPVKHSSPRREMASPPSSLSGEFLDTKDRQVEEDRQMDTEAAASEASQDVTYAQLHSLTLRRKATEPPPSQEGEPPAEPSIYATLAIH
# Procedure, shortened: as §1
# [5] = biological target: T4, human LILRB4 on HEK293-6E cells (human, UniProt Q8NHJ6 22-448); test: flow cytometry, HEK293-6E transfectants
# T4 construct: whole, on cells; also called hLILRB4
# Procedure, shortened: as §1
# [6] = biological target: T5, human LILRB5 on HEK293-6E cells (human, UniProt O75023 24-590); test: flow cytometry, HEK293-6E transfectants
# T5 construct: whole, on cells; also called hLILRB5
# T5 sequence (O75023 24-590): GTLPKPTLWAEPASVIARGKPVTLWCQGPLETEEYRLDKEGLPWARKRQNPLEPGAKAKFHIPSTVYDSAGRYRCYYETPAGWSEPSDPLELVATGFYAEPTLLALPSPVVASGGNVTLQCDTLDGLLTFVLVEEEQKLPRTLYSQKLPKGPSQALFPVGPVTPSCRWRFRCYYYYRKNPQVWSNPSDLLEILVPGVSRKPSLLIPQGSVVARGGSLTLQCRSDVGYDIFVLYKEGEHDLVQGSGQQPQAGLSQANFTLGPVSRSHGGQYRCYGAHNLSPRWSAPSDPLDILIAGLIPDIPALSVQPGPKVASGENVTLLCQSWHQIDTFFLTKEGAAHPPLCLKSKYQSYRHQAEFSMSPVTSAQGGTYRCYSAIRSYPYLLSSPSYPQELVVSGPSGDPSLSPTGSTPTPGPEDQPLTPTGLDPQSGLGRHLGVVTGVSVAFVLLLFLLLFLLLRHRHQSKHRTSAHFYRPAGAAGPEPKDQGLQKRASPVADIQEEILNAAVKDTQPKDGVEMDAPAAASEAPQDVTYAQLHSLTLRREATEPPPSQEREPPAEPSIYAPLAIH
# Procedure, shortened: as §1
# [7] = biological target: T6, human LILRA1 on HEK293-6E cells (human, UniProt O75019 17-489); test: flow cytometry, HEK293-6E transfectants
# T6 construct: whole, on cells; also called hLILRA1
# T6 sequence (O75019 17-489): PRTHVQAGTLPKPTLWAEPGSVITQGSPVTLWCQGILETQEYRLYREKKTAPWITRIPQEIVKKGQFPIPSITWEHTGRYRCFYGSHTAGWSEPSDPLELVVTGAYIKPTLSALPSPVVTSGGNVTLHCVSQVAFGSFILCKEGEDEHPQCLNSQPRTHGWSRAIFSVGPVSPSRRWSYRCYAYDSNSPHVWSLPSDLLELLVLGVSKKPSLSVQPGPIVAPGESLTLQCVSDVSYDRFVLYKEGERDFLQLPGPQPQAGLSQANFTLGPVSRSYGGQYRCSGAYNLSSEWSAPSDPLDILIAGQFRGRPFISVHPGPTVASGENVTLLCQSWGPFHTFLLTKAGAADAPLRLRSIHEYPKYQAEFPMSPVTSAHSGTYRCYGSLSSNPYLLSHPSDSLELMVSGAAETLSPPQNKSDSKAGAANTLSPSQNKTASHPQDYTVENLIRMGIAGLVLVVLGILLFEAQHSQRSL
# Procedure, shortened: as §1
# [8] = biological target: T7, human LILRA2 on HEK293-6E cells (human, UniProt Q8N149 24-483); test: flow cytometry, HEK293-6E transfectants
# T7 construct: whole, on cells; also called hLILRA2
# T7 sequence (Q8N149 24-483): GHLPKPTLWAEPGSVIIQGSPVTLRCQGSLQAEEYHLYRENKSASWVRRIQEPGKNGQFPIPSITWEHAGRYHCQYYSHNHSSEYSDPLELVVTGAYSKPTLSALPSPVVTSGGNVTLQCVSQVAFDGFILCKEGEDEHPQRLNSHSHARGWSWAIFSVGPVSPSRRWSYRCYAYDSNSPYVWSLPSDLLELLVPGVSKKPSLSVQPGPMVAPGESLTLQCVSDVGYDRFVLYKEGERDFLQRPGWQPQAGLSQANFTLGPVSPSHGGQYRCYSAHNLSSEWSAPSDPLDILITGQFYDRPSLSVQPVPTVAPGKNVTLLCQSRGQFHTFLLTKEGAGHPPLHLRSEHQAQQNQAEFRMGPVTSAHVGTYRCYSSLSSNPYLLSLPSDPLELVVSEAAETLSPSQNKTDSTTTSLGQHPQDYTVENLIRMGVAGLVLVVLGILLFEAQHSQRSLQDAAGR
# Procedure, shortened: as §1
# [9] = biological target: T8, human LILRA4 on HEK293-6E cells (human, UniProt P59901 24-499); test: flow cytometry, HEK293-6E transfectants
# T8 construct: whole, on cells; also called hLILRA4
# T8 sequence (P59901 24-499): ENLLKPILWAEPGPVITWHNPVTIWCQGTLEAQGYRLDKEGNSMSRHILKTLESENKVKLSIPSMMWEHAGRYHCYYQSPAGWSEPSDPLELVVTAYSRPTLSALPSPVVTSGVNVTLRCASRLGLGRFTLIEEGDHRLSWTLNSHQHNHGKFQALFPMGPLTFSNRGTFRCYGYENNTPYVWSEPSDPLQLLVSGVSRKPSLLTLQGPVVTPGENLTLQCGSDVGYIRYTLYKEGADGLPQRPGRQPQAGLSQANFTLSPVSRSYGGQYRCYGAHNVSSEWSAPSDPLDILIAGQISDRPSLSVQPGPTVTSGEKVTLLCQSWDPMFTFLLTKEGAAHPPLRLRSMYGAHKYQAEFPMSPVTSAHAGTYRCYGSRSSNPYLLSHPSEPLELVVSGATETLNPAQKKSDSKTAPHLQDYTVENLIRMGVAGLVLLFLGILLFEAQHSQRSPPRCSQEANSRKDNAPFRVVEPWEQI
# Procedure, shortened: as §1
# [10] = biological target: T9, human LILRA5 on HEK293-6E cells (human, UniProt A6NI73 42-299); test: flow cytometry, HEK293-6E transfectants
# T9 construct: whole, on cells; also called hLILRA5
# T9 sequence (A6NI73 42-299): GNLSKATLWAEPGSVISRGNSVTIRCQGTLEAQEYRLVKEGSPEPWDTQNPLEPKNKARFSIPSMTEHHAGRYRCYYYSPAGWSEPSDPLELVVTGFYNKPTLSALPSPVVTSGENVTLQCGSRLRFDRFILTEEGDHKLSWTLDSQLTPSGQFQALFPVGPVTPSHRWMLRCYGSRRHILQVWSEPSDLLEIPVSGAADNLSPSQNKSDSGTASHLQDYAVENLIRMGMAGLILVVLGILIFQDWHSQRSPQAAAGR
# Procedure, shortened: as §1
# [11] = biological target: T10, human LILRA6 on HEK293-6E cells (human, UniProt Q6PI73 24-481); test: flow cytometry, HEK293-6E transfectants
# T10 construct: whole, on cells; also called hLILRA6
# T10 sequence (Q6PI73 24-481): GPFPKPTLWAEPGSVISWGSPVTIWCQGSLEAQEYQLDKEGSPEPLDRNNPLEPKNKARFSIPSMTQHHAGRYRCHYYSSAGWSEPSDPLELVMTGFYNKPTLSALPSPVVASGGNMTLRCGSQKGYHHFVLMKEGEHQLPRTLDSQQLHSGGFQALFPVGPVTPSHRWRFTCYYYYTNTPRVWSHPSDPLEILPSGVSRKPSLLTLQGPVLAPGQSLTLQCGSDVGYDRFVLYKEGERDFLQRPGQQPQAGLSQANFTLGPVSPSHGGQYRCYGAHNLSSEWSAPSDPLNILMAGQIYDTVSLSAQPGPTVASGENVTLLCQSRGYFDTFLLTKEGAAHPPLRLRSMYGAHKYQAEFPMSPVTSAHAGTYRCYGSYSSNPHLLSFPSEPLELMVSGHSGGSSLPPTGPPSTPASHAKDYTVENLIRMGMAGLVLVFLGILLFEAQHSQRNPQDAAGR
# Procedure, shortened: as §1
# [12] = biological target: T11, recombinant human LILRB1-His (human, UniProt Q8NHL6 24-458); test: MSD ELISA, coated antigen, purified IgG1
# T11 construct: Bought protein; also called LILRB1 protein
# [13] = biological target: T12, recombinant human LILRB2-His (human, UniProt Q8N423 22-461, limits assumed); test: MSD ELISA, coated antigen, purified IgG1
# T12 construct: Bought protein; also called LILRB2 protein
# T12 sequence (Q8N423 22-461 limits assumed): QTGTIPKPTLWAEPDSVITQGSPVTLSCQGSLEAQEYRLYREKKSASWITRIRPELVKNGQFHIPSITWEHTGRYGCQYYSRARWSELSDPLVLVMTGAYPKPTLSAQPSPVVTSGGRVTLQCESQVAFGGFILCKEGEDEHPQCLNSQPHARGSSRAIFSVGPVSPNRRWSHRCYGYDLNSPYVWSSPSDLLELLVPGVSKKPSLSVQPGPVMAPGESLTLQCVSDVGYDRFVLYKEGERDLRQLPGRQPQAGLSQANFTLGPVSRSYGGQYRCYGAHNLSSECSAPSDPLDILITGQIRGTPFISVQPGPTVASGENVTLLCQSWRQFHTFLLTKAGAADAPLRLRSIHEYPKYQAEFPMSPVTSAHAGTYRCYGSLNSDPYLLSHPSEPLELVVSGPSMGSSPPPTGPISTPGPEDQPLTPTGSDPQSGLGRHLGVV
# [14] = biological target: T13, recombinant cynomolgus LILRB1 (cynomolgus); test: MSD ELISA, coated antigen, purified IgG1
# T13 construct: Bought protein
# human LILRB1 on cells [15] = biological target: T1, human LILRB1 on cells; test: flow cytometry, 721.221 cells, AF647-labelled antibody
# Protocol: (§2) While LILRB2 expression is mostly restricted to myeloid cells, LILRB1 has a broader expression on immune cell subsets, including B cells, T cells and NK cells.
# (§3) Frozen cells were removed from storage in vapor phase liquid nitrogen and thawed by gentle swirling in a water bath at 37° C., then resuspended in DMEM media with 10% FBS. Cells were placed in a 15 mL conical tube and centrifuged at 300×g for 5 min, then supernatant was removed. Cells were resuspended in DMEM+10% FBS at a cell density of 2×10⁵ cells/mL in a T75 flask for culturing, and incubated at 37° C., 5% CO₂ for 3 days before passaging. Cells were passaged when the cell density reached 1×10⁶ cell/mL. On the day of the assay, cells were centrifuged, then supernatant was removed. Cells were resuspended in Blocking Buffer B (FACS Buffer containing 10% FBS and 0.5 mg/mL human IgG1 (Athens Research, No. 16-16-090707-1M)+0.05% NaN₃, 5% (w/v)) in a 15 mL conical tube, then incubated at 4° C. for 30 min. […] Cells were incubated with antibodies at 4° C. for 1 h. Cells were washed twice in FACS Buffer (PBS containing 2 mM EDTA+1% FBS+0.05% NaN₃) and then stained with for 10 min with Zombie Violet™ fixable viability dye (BioLegend, No. 423114) at RT, washed with FACS Buffer and resuspend in 75 μL of FACS Buffer for acquisition on a BD FACSymphony™ or BD FACSCanto™ II flow cytometer (BD Biosciences), as described in Example 6.
# human LILRB2 on cells [16] = biological target: T2, human LILRB2 on cells; test: flow cytometry, LILRB2-HEK293T cells, AF647-labelled antibody
# Procedure, shortened: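 Cells were blocked 30 min at 4° C in FACS buffer with 10% FBS and 0.5 mg/mL human IgG1. AF647-labelled antibodies were then bound for 1 h at 4° C. After Zombie Violet viability staining, binding was read by flow cytometry.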
# human LILRB2 on cells [17] = biological target: T2, human LILRB2 on cells; test: flow cytometry, AF647-labelled antibody on HEK293T cells stably expressing human LILRB2
# Protocol: as §2, §3
# T1 sequence (Q8NHL6 24-650): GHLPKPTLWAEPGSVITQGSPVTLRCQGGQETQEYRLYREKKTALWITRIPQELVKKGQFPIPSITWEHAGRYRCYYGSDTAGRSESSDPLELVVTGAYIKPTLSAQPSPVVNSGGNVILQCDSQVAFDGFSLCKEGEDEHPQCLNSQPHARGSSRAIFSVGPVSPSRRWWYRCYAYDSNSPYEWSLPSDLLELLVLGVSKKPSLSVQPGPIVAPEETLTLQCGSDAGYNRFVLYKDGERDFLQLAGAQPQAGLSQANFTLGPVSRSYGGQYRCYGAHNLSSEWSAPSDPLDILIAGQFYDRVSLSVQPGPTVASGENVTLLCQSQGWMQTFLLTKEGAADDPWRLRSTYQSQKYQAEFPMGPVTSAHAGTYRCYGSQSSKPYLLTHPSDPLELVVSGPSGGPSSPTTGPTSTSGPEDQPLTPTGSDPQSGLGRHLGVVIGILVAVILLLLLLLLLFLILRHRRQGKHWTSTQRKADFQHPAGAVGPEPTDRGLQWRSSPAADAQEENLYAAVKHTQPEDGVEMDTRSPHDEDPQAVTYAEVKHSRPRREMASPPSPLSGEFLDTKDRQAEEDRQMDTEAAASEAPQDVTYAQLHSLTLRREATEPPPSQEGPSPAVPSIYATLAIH
MFI (human LILRB1 on cells [2]),MFI (human LILRB2 on cells [3]),MFI [4],binding result [4],MFI [5],binding result [5],MFI [6],binding result [6],MFI [7],binding result [7],MFI [8],binding result [8],MFI [9],binding result [9],MFI [10],binding result [10],MFI [11],binding result [11],EC50 [12],EC50 [13],Binder,other results
,,,,,,,,,,,,,,,,,,,,"Comp 3 (antibody, human IgG1, kappa, N297G, V domains shown, The text says 'a LILRB2/1 antibody (Comp 3); also called comparator LILRB2/1 antibody) VH: QVQLVQSGAEVKKPGASVKVSCKASGYTFTDYYINWVRQAPGQGLEWMGNVNPNDGGTTYNQKFKGRVTMTTDTSTSTAYMELRSLRSDDTAVYYCARREIYFYGTIYYYAMDYWGQGTLVTVSS VL: DIQLTQSPSFLSASVGDRVTITCRASESVDYYGNSFMYWYQQKPGKAPKLLIYFASNLESGVPSRFSGSGSGTEFTLTISSLQPEDFATYYCQQNNEDPWTFGGGTKVEIKR",binding result (human LILRB1 on cells [1]): binds
,,,,,,,,,,,,,,,,,,,,"Comp 1 (anti-LILRB1 antibody) (antibody, human IgG1, kappa, V domains shown) VH: QVQLKESGPGLVAPSQSLSITCTVSGFSLTNYGVSWVRQPPGKGLEWLGIIWGDGSTNYHSALISRLSISKDNSKSQVFLKLNSLQADDTATYYCAKPNWDTYAMDFWGQGTSVTVSS VL: DIQMTQTTSSLSASLGDRVTISCRASQDISNFLNWYQQKPDGTVKLLIYCTSKLHSGVPSRFSGSGSETDYSLTISNLEQEDIATYFCQQGNTLPPTFGGGTKLEIIR",binding result (human LILRB1 on cells [1]): binds
988 MFI,5760 MFI,104 MFI,no binding (tested: 1 µg/mL),33.5 MFI,no binding (tested: 1 µg/mL),93.3 MFI,no binding (tested: 1 µg/mL),249 MFI,no binding (tested: 1 µg/mL),28.6 MFI,no binding (tested: 1 µg/mL),140 MFI,no binding (tested: 1 µg/mL),78.3 MFI,no binding (tested: 1 µg/mL),151 MFI,no binding (tested: 1 µg/mL),0.00593 µg/mL,0.0187 µg/mL,"B21H1-14 (antibody, human IgG1, kappa, humanized IgG1/kappa, VH1+VL4) heavy: not shown light: DVVMTQSPSTVSASVGDRVTLTCQASGNIYSFLAWYQQKPGQPPKLLIYTASNLETGVPDRFSGSGSGTDYTLTISSLQADDFATYYCLGGLYSSDVSYAFGQGTKVEIKRTVAAPSVFIFPPSDEQLKSGTASVVCLLNNFYPREAKVQWKVDNALQSGNSQESVTEQDSKDSTYSLSSTLTLSKADYEKHKVYACEVTHQGLSSPVTKSFNRGEC",EC50 [14]: 0.45 µg/mL; EC50 (human LILRB1 on cells [15]): 0.0552 µg/mL; EC50 (human LILRB2 on cells [16]): 0.0011 µg/mL
1040 MFI,5460 MFI,99.2 MFI,no binding (tested: 1 µg/mL),28.8 MFI,no binding (tested: 1 µg/mL),87.9 MFI,no binding (tested: 1 µg/mL),249 MFI,no binding (tested: 1 µg/mL),27.8 MFI,no binding (tested: 1 µg/mL),126 MFI,no binding (tested: 1 µg/mL),74 MFI,no binding (tested: 1 µg/mL),142 MFI,no binding (tested: 1 µg/mL),0.00646 µg/mL,0.0219 µg/mL,"B21H1-32 (antibody, human IgG1, kappa, humanized IgG1/kappa, VH3+VL2) heavy: not shown light: DIQMTQSPSSLSASVGDRVTITCQASGNIYSFLAWYQQKPGKVPKLLIYTASNLETGVPSRFSGSGSGTDYTLTISSLQSEDAATYYCLGGLYSSDVSYAFGGGTKVVIKRTVAAPSVFIFPPSDEQLKSGTASVVCLLNNFYPREAKVQWKVDNALQSGNSQESVTEQDSKDSTYSLSSTLTLSKADYEKHKVYACEVTHQGLSSPVTKSFNRGEC",EC50 [14]: 0.272 µg/mL; EC50 (human LILRB1 on cells [15]): 0.0518 µg/mL; EC50 (human LILRB2 on cells [16]): 0.00123 µg/mL
,,,,,,,,,,,,,,,,,,,,"Comp 2 (anti-LILRB2 antibody) (antibody, human IgG1, kappa, V domains shown) VH: QIQLVQSGPELKKPGETVKISCKASGYTFTNYGMNWVKQAPGKGLKWMGWINTYIGEPIYADDFKGRFAFSLETSASTAYLQINNLKNEDMATYFCARRSDYDGYAMDYWGQGTSVTVSS VL: DIVMSQSPSSLAVSVGERVTMSCKSSQSLLYSGNQKNYLAWYQQKPGQSPKLLIYWASTRESGVPDRFTGSGSGTDFTLTISSVKAEDLAVYYCQQHDSYPTFGGGSRLEIKR",EC50 (read off the curve) (human LILRB2 on cells [17]): ~0.6 nM
1030 MFI,4120 MFI,108 MFI,no binding (tested: 1 µg/mL),33.5 MFI,no binding (tested: 1 µg/mL),94.8 MFI,no binding (tested: 1 µg/mL),332 MFI,no binding (tested: 1 µg/mL),27.9 MFI,no binding (tested: 1 µg/mL),144 MFI,no binding (tested: 1 µg/mL),77.4 MFI,no binding (tested: 1 µg/mL),148 MFI,no binding (tested: 1 µg/mL),0.00944 µg/mL,0.0369 µg/mL,"B21H1-55 (antibody, human IgG1, kappa, humanized IgG1/kappa, VH5+VL5) heavy: not shown light: DIQMTQTPSTVEASVGGTVTITCQASGNIYSFLAWYQQKPGQPPKLLIYTASNLETGVPSRFSGSGSGTEYTLTISGLQSDDAATYYCLGGLYSSDVSYAFGGGTEVVVKRTVAAPSVFIFPPSDEQLKSGTASVVCLLNNFYPREAKVQWKVDNALQSGNSQESVTEQDSKDSTYSLSSTLTLSKADYEKHKVYACEVTHQGLSSPVTKSFNRGEC",EC50 [14]: 0.25 µg/mL; EC50 (human LILRB1 on cells [15]): 0.0507 µg/mL; EC50 (human LILRB2 on cells [16]): 0.00071 µg/mL
